Here are results for one molecule from article PMC9891502.

The assay concerns the target CMV gB ectodomain protein (human cytomegalovirus) (UniProt P13201).

B1: TRL345 (antibody, V domains shown)
VH: QVQLVESGGGVVQPGRSLRLSCAASGFTFSDYNMHWVRQAPGKGLEWVAVISIDGTYKYSADSVAGRFSLSRDNSKNTLYLQMNSLRPDDTAIYYCARDGRSVGGFSGILDPWGQGTLVTVSS
VL: EIVMTQSPATLSLSPGDRATLSCRASQSVGSYLAWYQQKPGQAPRLLMYDSSVRATGIPARFSGSGSGTDFTLTISSLEPEDFAVYYCQQRNNWPPLTFGGGTKVEIK
With B1, the neutralization of CMV strain AD169rUL131-GFP on ARPE epithelial cells, IC50 came out at 0.3 µg/mL; the neutralization of CMV strain AD169rUL131-GFP on MRC-5 fibroblasts, IC50 amounted to 0.24 µg/mL; the neutralization of CMV strain Toledo on MRC-5 fibroblasts, IC50 amounted to 0.19 µg/mL; the neutralization of CMV strain Towne on MRC-5 fibroblasts, IC50 was 0.21 µg/mL.
